Experimental data taken from patent EP4745156A1.
Residue numbers refer to the chain shown, from its start.

B1: 6465-H2K1-canIgGB (antibody, V domains shown)
VH: EVQLVESGGDLVKPGGSLRLSCVASGYSFTNYYLYWVRQAPGKGLQWLGELNPRNGGTNLNAKFKTRFTISVDKAKNTAYLQMNSLRAEDTAVYYCTRGGTTVVVRDVMDFWGQGTLVTVSS
VL: EIVLTQTPLSLAVTPGELATISCRASESVDSYGNSFMHWYLQKPGQTPRLLIYRASNLESGVSDRFSGSGSRTDFTLKISRVEAEDVGVYYCQQSNEDPYTFGQGTKLEIKR
B2: 6465-H3K1-canIgGB (antibody, V domains shown)
VH: B1 VH with Q46E, L48V, G49A, V72R, K74N, T78M
VL: B1 VL
B3: 6465-H1K3-canIgGB (antibody, V domains shown)
VH: B1 VH with Q46E, L48V, T78M
VL: DIVMTQTPLSLSVSPGEPASISCRASESVDSYGNSFMHWYRQKPGQSPQLLIYRASNLESGVPDRFSGSGSGTDFTLRISRVEADDAGVYYCQQSNEDPYTFGQGTKLEIKR
B4: 6465-H2K3-canIgGB (antibody, V domains shown)
VH: B1 VH
VL: B3 VL
B5: 6465-H3K2-canIgGB (antibody, V domains shown)
VH: B1 VH with Q46E, L48V, G49A, V72R, K74N, T78M
VL: B3 VL with M4L, G72R
B6: 6465-H1K2-canIgGB (antibody, V domains shown)
VH: B1 VH with Q46E, L48V, T78M
VL: B3 VL with M4L, G72R
B7: 6465-H2K2-canIgGB (antibody, V domains shown)
VH: B1 VH
VL: B3 VL with M4L, G72R
B8: B2-H2K2-canIgGB (antibody, V domains shown)
VH: EVQLVESGGDLVKPGGSLRLSCVASGFTFSDAWMDWVRQAPGKGLEWVAEIRSRAESHATYYAESVKGRFTISRDDAKNMVYLQMNSLRAEDTAVYYCTPASTMITTGWFAYWGQGTLVTVSS
VL: DIVMTQTPLSLSVSPGETASISCRASQNISVYLHWYRQKPGQSPQVLIKYVSQSISGVPDRFSGSGSGSDFTLRISRVEADDTGVYYCQNGHSFPYTFGQGTKLEIKR
B9: B2-H2K3-canIgGB (antibody, V domains shown)
VH: B8 VH
VL: EIVMTQTPLSLSVSPGELATISCRASQNISVYLHWYQQKPGQAPKVLIKYVSQSISGVPSRFSGSGSGSDFTLTISSVEAEDVGVYYCQNGHSFPYTFGQGTKLEIKR
B10: B2-H1K3-canIgGB (antibody, V domains shown)
VH: B8 VH with E46Q, V48L, M80T
VL: B9 VL
B11: B2-H3K2-canIgGB (antibody, V domains shown)
VH: B8 VH with E46Q, M80T
VL: B8 VL
B12: B2-H3K3-canIgGB (antibody, V domains shown)
VH: B8 VH with E46Q, M80T
VL: B9 VL

These binders were tested against His-tagged canine IL-31 (interleukin 31) recombinant protein (canine) (assay: cell-based or functional assay).

| pSTAT IC50 (µg/mL) | Binder |
| --- | --- |
| 7.3 | B1 |
| 7.8 | B2 |
| 7.4 | B3 |
| 7.6 | B4 |
| 8.2 | B5 |
| 7.9 | B6 |
| 7.3 | B7 |
| 7.8 | B8 |
| 7.1 | B9 |
| 9.3 | B10 |
| 7.2 | B11 |
| 7.4 | B12 |

The binders below were run against His-tagged canine IL-31 (interleukin 31) recombinant protein (canine) (assay: BLI (Gator), biotinylated antibody on streptavidin probe, canine IL-31 as analyte).

| Kd [nM] | koff [s⁻¹] | kon [M⁻¹ s⁻¹] | Binder |
| --- | --- | --- | --- |
| 3.37 | 0.00171 | 508000 | B1 |
| 5.75 | 0.00121 | 211000 | B2 |
| 2.5 | 0.00145 | 579000 | B3 |
| 4.99 | 0.001 | 201000 | B4 |
| 6.95 | 0.00361 | 519000 | B5 |
| 6.54 | 0.00088 | 135000 | B6 |
| 17.8 | 0.00166 | 93200 | B7 |
| 9.17 | 0.000882 | 96200 | B8 |
| 1.53 | 0.000143 | 93500 | B9 |
| 16.7 | 0.0015 | 89800 | B10 |
| 1.76 | 0.000188 | 107000 | B11 |
| 3.16 | 0.000381 | 121000 | B12 |
